Measurements as given in US20120328619A1 (published 2012).

B1: CD123-specific scFv clone 43 (scFv)
scFv: MADYKDIVMTQSHKFMSTSVGDRVNITCKASQNVDSAVAWYQQKPGQSPKALIYSASYRYSGVPDRFTGRGSGTDFTLTISSVQAEDLAVYYCQQYYSTPWTFGGGTKLEIKRGGGGSGGGGSGGGGSGGGGSEVKLVESGGGLVQPGGSLSLSCAASGFTFTDYYMSWVRQPPGKALEWLALIRSKADGYTTEYSASVKGRFTLSRDDSQSILYLQMNALRPEDSATYYCARDAAYYSYYSPEGAMDYWGQGTSVTVSS
notes: Murine scFv from a phage display library, expressed in E. coli from pAK400, carries a hexahistidine tag
B2: single chain triplebody sctb [123×ds16×33] (other)
chain: MADYKDIVMTQSHKFMSTSVGDRVNITCKASQNVDSAVAWYQQKPGQSPKALIYSASYRYSGVPDRFTGRGSGTDFTLTISSVQAEDLAVYYCQQYYSTPWTFGGGTKLEIKRGGGGSGGGGSGGGGSGGGGSEVKLVESGGGLVQPGGSLSLSCAASGFTFTDYYMSWVRQPPGKALEWLALIRSKADGYTTEYSASVKGRFTLSRDDSQSILYLQMNALRPEDSATYYCARDAAYYSYYSPEGAMDYWGQGTSVTVSSASGAGGGGSGGGGSGGGGSGGGGSAAADYKDIVLTQSPASLAVSLGQRATISCKASQSVDFDGDSFMNWYQQKPGQPPKLLIYTTSNLESGIPARFSASGSGTDFTLNIHPVEEEDTATYYCQQSNEDPYTFGCGTKLELKRGGGGSGGGGSGGGGSGGGGSQVTLKESGPGILQPSQTLSLTCSFSGFSLRTSGMGVGWIRQPSGKCLEWLAHIWWDDDKRYNPALKSRLTISKDTSSNQVFLKIASVDTADTATYYCAQINPAWFAYWGQGTLVTVSRGGGGSGGGGSGGGGSGGGGSMADYKDIVMTQSHKFLLVSVGDRVSITCKASQDVSTAVAWYQQKPGQSPKLLIYSASYRYTGVPDRFIGSGSGTDFTLTISSVQAEDLADYFCQQHYSTPLTFGAGTKLEIKRGGGGSGGGGSGGGGSSGGGSEVQLKESGPGLVAPSQSLSITCTVSGFPLTSYGVSWVRQPPGKGLEWLGVIWGDGSTNYHSALISRLSISKDNSKSQVFLKLNNLQTDDTATYYCARDTYYPYYAMDYWGQGTSVTVSS
notes: also called CD123×dsCD16×CD33

Key:
[1] = target: T1, human CD123 (alpha subunit of the interleukin-3 receptor) (human, UniProt P26951 19-378); test: calibrated flow cytometry
T1 construct: whole, on cells; also called IL-3Rα
T1 sequence (P26951 19-378): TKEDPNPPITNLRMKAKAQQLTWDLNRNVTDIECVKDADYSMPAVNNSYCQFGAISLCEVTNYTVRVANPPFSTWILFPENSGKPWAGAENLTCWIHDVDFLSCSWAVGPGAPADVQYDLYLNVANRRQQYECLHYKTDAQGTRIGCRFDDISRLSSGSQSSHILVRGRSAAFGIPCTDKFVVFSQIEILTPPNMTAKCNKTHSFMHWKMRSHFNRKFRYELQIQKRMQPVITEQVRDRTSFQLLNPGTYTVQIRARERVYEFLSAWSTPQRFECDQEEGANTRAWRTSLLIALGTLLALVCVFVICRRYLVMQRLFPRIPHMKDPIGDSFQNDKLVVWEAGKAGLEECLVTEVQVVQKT

CD33 = target: T2, CD33 (human, UniProt P20138 18-364); test: calibrated flow cytometry on U937 cells
T2 construct: whole, on cells; also called CD33 on U937 cells
T2 sequence (P20138 18-364): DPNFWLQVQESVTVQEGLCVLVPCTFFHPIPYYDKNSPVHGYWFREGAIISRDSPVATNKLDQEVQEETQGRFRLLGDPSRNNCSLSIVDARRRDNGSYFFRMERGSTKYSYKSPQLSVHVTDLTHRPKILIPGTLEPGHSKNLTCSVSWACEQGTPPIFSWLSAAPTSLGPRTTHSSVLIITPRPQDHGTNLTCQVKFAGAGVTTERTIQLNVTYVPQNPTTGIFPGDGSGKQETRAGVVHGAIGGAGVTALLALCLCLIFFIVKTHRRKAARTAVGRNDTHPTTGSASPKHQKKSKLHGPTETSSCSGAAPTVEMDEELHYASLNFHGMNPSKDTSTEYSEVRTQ
Experimental: (§1) Immunofluorescence analysis was performed on a FACSCalibur instrument using CellQuest software (Becton Dickinson, Heidelberg, Germany) as described (Schwemmlein et al, 2006). Briefly, 1×10⁴ events were collected for each sample, and whole cells were analyzed using appropriate scatter gates to exclude cellular debris and aggregates. […] KD values were determined by calibrated flow cytometry, as described (Benedict at al, 1997). The highest mean fluorescence value was set to 100%, and all data points were normalized to this value. The experiments were repeated 6 times. The KD values were calculated using a nonlinear regression curve fit.

[2] = target: T1, human CD123 (alpha subunit of the …); test: calibrated flow cytometry on CD123-transfected 293 cells
Experimental: as §1

[3] = target: T3, CD123 and CD33 on double positive MOLM-13 cells (human, UniProt P26951 19-378; P20138 18-364); test: calibrated flow cytometry on CD123 and CD33 double positive MOLM-13 cells (avidity)
T3 construct: whole, on cells; Two separate surface antigens on the same cell, not a complex; also called CD33/CD123
T3 sequence (P26951 19-378, chain 1 of 2): as the sequence (P26951 19-378) above
T3 sequence (P20138 18-364, chain 2 of 2): as the sequence (P20138 18-364) above
Experimental: as §1

human CD16 (FcγRIII) = target: T4, human CD16 (FcγRIII) (human, UniProt P08637 17-254); test: calibrated flow cytometry on CD16-transfected CHO cells
T4 construct: whole, on cells
T4 sequence (P08637 17-254): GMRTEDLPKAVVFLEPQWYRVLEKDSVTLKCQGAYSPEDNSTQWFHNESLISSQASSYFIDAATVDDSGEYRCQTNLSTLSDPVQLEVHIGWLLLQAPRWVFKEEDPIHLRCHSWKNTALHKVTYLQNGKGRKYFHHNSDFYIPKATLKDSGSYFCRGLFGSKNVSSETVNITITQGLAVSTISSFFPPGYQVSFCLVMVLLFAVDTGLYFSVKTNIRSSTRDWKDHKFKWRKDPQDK
Experimental: as §1

Binder	Kd [1] [µM]	Kd (CD33) [µM]	Kd [2] [µM]	Kd [3] [µM]	Kd (human CD16 (FcγRIII)) [µM]
B1	0.0045				
B2		0.0178	0.0188	0.0135	0.0217
